Source: PMC7494424 (Nature methods, 2019)

B1: P. falciparum M18 aspartyl aminopeptidase (enzyme, UniProt Q8I2J3 1-570, looked up)
chain: MDKKAREYAQDALKFIQRSGSNFLACKNLKERLENNGFINLSEGETWNLNKNEGYVLCKENRNICGFFVGKNFNIDTGSILISIGHIDSCALKISPNNNVIKKKIHQINVECYGSGLWHTWFDRSLGLSGQVLYKKGNKLVEKLIQINKSVLFLPSLAIHLQNRTRYDFSVKINYENHIKPIISTTLFNQLNKCKRNNVHHDTILTTDTKFSHKENSQNKRDDQMCHSFNDKDVSNHNLDKNTIEHLTNQQNEEKNKHTKDNPNSKDIVEHINTDNSYPLLYLLSKELNCKEEDILDFELCLMDTQEPCFTGVYEEFIEGARFDNLLGSFCVFEGFIELVNSIKNHTSNENTNHTNNITNDINDNIHNNLYISIGYDHEEIGSLSEVGARSYCTKNFIDRIISSVFKKEIHEKNLSVQEIYGNLVNRSFILNVDMAHCSHPNYPETVQDNHQLFFHEGIAIKYNTNKNYVTSPLHASLIKRTFELYYNKYKQQIKYQNFMVKNDTPCGSTVGSMVAANLSMPGIDIGIPQLAMHSIREIAAVHDVFFLIKGVFAFYTYYNQVLSTCVHDK
B2: P. falciparum glutamine synthetase (enzyme, UniProt C0H551 1-543, looked up)
chain: MKSVSFSNNAELYEYIKDKKNDVEIVACIITNLLGTYFKCFFYVKEITLNKLESGFSFDASSIKLCSDTEVSDFFIKVDHSTCYLEECDGKNILNIMCDIKRYNGFDYYKCPRTILKKTCEFVKNEGIADKVCIGNELEFFIFDKVNYSLDEYNTYLKVYDRESFSCKNDLSSIYGNHVVNKVEPHKDHFNNPNNEYLINDDSKKVKKKSGYFTTDPYDTSNIIKLRICRALNDMNINVQRYHHEVSTSQHEISLKYFDALTNADFLLITKQIIKTTVSSFNRTATFMPKPLVNDNGNGLHCNISLWKNNKNIFYHNDPSTFFLSKESFYFMYGIVKHAKALQAFCNATMNSYKRLVPGFETCQKLFYSFGSRSAVIRLSLINYSNPSEKRIEFRLPDCANSPHLVMAAIILAGYDGIKSKEQPLVPFESKDNHFYISSIFSKYVQHPENFNILTHALEGYESLHTINESPEFKNFFKCEEPQGISFSLVESLDALEKDHAFLTVNNIFTEEMIQEYIKFKREEIDAYNKYVNAYDYHLYYEC

Target: the molecule itself
Test: cryo-EM structure

Protein | stoichiometry N
B1 | 12
B2 | 12
